Biological target: T1, HA-ubiquitin (expressed from pMT123-HA-ubiquitin) (UniProt P0CG48 1-76)
T1 construct: Co-expressed in HEK 293T cells and detected with anti-HA after anti-myc immunoprecipitation; It attaches covalently (isopeptide bond, polyubiquitin chains); P0CG48 is the polyubiquitin-C precursor; a single ubiquitin unit is 76 residues; not shown: HA tag of the pMT123-HA-ubiquitin plasmid
Test: covalent ubiquitination in HEK 293T cells: anti-myc IP, anti-HA Western blot

binding result: binds
B1: myc-EGF WT (expressed from pcDNA3-myc-EGF WT) (ligand)
chain: NSDSECPLSHDGYCLHDGVCMYIEALDKYACNCVVGYIGERCQYRDLKWWELR
modifications: not fully specified
notes: Expressed inside HEK 293T cells; also called human EGF; not shown: myc tag of the pcDNA3-myc vector
